Consider ten molecules from article PMC5170556 (Molecular Biology of the Cell, 2016).

Where a chain is given by its changes, count along the chain named.

As a reminder, the stoichiometry N is a count of units in the complex or per binding partner. By Kd is commonly meant the concentration at which binding is half-saturated. Higher therefore signals weaker binding.

To fix the notation:
T1: Kar9-GFP (S. cerevisiae, UniProt P32526 1-644)
T1 sequence (looked up): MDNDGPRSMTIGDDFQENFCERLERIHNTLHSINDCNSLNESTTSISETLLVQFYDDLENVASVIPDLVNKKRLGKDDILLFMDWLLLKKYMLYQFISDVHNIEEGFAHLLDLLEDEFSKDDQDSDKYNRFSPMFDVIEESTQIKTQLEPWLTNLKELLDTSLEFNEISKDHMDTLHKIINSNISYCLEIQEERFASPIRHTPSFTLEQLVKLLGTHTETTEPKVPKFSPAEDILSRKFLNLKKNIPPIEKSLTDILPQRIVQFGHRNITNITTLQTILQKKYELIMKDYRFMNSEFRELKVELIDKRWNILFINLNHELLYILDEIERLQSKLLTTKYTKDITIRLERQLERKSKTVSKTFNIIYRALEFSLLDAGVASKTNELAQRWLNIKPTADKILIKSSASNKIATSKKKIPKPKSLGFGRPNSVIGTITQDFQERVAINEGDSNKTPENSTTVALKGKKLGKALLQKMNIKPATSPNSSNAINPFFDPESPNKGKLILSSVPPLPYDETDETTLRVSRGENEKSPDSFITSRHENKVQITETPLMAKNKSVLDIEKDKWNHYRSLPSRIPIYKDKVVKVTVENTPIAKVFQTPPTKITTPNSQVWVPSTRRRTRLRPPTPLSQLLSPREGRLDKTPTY

T2: Kar9N-Site1 (first 570 N-terminal residues of Kar9) (S. cerevisiae, UniProt P32526 1-570)
T2 sequence (looked up): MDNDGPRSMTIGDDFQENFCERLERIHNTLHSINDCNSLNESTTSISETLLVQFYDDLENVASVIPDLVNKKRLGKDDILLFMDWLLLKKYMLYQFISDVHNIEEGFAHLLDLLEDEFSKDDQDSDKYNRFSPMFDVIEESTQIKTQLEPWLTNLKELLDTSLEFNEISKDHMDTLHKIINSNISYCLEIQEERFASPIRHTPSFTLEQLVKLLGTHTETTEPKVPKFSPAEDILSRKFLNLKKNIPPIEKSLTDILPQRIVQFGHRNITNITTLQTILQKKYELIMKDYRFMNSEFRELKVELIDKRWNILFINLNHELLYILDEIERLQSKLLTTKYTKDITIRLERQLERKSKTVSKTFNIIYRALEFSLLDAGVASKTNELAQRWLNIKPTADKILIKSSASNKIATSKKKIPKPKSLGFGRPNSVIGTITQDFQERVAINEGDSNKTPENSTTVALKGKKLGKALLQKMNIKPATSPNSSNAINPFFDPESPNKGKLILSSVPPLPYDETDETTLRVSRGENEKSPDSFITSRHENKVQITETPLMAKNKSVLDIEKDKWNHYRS

T3: Kar9 (full-length) (S. cerevisiae, UniProt P32526 1-644)
T3 sequence (looked up): T1 sequence (looked up)

B1: Mal3 (unlabeled), Schizosaccharomyces pombe EB1 family member (natural protein, UniProt Q10113 1-308, looked up)
chain: MSESRQELLAWINQVTSLGLTRIEDCGKGYAMIQIFDSIYQDIPLKKVNFECNNEYQYINNWKVLQQVFLKKGIDKVVDPERLSRCKMQDNLEFVQWAKRFWDQYYPGGDYDALARRGNRGPANTRVMNSSAGATGPSRRRQVSSGSSTPSMTKSSANNNNVSSTANTAAVLRAKQAQQQITSLETQLYEVNETMFGLERERDFYFNKLREIEILVQTHLTTSPMSMENMLERIQAILYSTEDGFELPPDQPADLTTALTDHDTNNVAEEAQMTDLKDSETQRVPSAPDFVHARLQSLEVDDDENITF
B2: Bim1 (full-length) (natural protein, S. cerevisiae, UniProt P40013 1-344, looked up)
chain: MSAGIGESRTELLTWLNGLLNLNYKKIEECGTGAAYCQIMDSIYGDLPMNRVKFNATAEYEFQTNYKILQSCFSRHGIEKTVYVDKLIRCKFQDNLEFLQWLKKHWIRHKDESVYDPDARRKYRPIITNNSATKPRTVSNPTTAKRSSSTGTGSAMSGGLATRHSSLGINGSRKTSVTQGQLVAIQAELTKSQETIGSLNEEIEQYKGTVSTLEIEREFYFNKLRDIEILVHTTQDLINEGVYKFNDETITGHGNGNGGALLRFVKKVESILYATAEGFEMNDGEDELNDKNLGEHGTVPNQGGYANSNGEVNGNEGSNHDVIMQNDEGEVGVSNNLIIDEETF
B3: C-terminally green fluorescent protein–tagged Bim1 (natural protein, S. cerevisiae, UniProt P40013 1-344, looked up)
chain: B2 chain
B4: GFP-tagged C-terminal domain of Bim1 (domain or fragment, S. cerevisiae, UniProt P40013 194-344, looked up)
chain: ETIGSLNEEIEQYKGTVSTLEIEREFYFNKLRDIEILVHTTQDLINEGVYKFNDETITGHGNGNGGALLRFVKKVESILYATAEGFEMNDGEDELNDKNLGEHGTVPNQGGYANSNGEVNGNEGSNHDVIMQNDEGEVGVSNNLIIDEETF
B5: C-terminal domain of Bim1 (residues 194–344) (domain or fragment, S. cerevisiae, UniProt P40013 194-344, looked up)
chain: B4 chain
B6: Kar9C (residues 429–644) (domain or fragment, S. cerevisiae, UniProt P32526 429-644, looked up)
chain: SVIGTITQDFQERVAINEGDSNKTPENSTTVALKGKKLGKALLQKMNIKPATSPNSSNAINPFFDPESPNKGKLILSSVPPLPYDETDETTLRVSRGENEKSPDSFITSRHENKVQITETPLMAKNKSVLDIEKDKWNHYRSLPSRIPIYKDKVVKVTVENTPIAKVFQTPPTKITTPNSQVWVPSTRRRTRLRPPTPLSQLLSPREGRLDKTPTY
B7: Kar9C-Site2mut (domain or fragment, S. cerevisiae, UniProt P32526 429-644, looked up)
chain: B6 chain with I147N, P148N

Data set [1] concerns the target Kar9 (full-length) (S. cerevisiae) (UniProt P32526). The data set can be described thus: SEC-MALS. Background: Size exclusion chromatography separates by hydrodynamic size, large species first.
Data set [2] deals with Kar9N (residues 1–429) (S. cerevisiae) (UniProt P32526). The data set can be described thus: SEC-MALS.
The target of data set [3] is T1, Kar9-GFP. The data set can be described thus: in vitro microtubule-tip tracking reconstitution.
Data set [4] concerns the molecule itself. The data set can be described thus: SEC-MALS.
Data set [5] concerns the molecule itself. The data set can be described thus: AUC.
Data set [6] has as its target T2, Kar9N-Site1 (first 570 N-terminal …). The data set can be described thus: fluorescence correlation spectroscopy.
For data set [7], the target named is T3, Kar9 (full-length). The data set can be described thus: fluorescence correlation spectroscopy.
Data set [8] addresses B6. The data set can be described thus: ITC.
The target in data set [9] is B7. The data set can be described thus: ITC.
The target of data set [10] is B5. The data set can be described thus: ITC. For orientation: ITC needs no label: the signal is the heat of the interaction.

Regarding “Kar9 (full-length) (from UniProt P32526 1-644) (natural protein)”, the stoichiometry N in [1] was determined as 2.

“Kar9N (residues 1–429) (from UniProt P32526 1-429) (domain or fragment)” showed a stoichiometry N in [2] of 2.

For B1, the binding result in [3] was “binds”.

For B2, the “stoichiometry N” value in data set [4] was 2.

In the case of B3, the “stoichiometry N” value in [5] worked out at 2. The molecule also returned a Kd in data set [6] of around 100000 nM.

In turn, B4 came in with a dissociation constant (Kd) in data set [7] of 4.5 nM.

In the case of B5, the “stoichiometry N” value in data set [4] was determined as 2. Besides, the Kd in data set [8] was found to be 9.1 nM; in data set [9], 4700 nM.

In the case of VFQTPPTKITTPNSQVWVPSTRRRTRLRPPTPLSQLLSPREGRLDKTPTY (domain or fragment) [Trx-Kar9-Site3], in data set [10], the Kd came to 560 nM and the “stoichiometry N” value was determined as 0.99.

Regarding B6, in data set [10], the “stoichiometry N” value was determined as 0.48.

Turning to B7, the “stoichiometry N” value in data set [10] was 0.74.
